Article PMC314469, “Protein Interaction Networks by Proteome Peptide Scanning” (PLoS Biology, 2004)

T1: Abp1 SH3 (ABP1_YEAST), P15891
T1 chain: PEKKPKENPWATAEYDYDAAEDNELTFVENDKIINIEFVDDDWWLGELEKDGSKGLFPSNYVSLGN


Target: T1, Abp1 SH3 (ABP1_YEAST), P15891
Experiment: SPOT array

Binder	normalised SPOT signal, Boehringer light units (BLU); mean over the file's lines of this peptide
IKKSVSSPKVSKP [YLR453C 47-59]	114
IPEYILDPNAQKP [YAL058W 299-311]	50
IPTRENTPSAFKP [YDL231C 441-453]	204
ILTFSTKKSKPIRP [YMR259C 332-345]	1350
IILENFIVEVPDKP [YKL005C 358-371]	57.8
IKMASFLPVPEKP [YNL206C 123-135]	370
IGSFITINIVPWRP [YLR101C 109-122]	21.1
ILIGLLKDILPQRP [YNR011C 357-370]	97.3
IPSENNIFFIPQKP [YPL147W 673-686]	79.8
IKPDAVVPERVKP [YPR171W 226-238]	38.6
ILYKSNDVELPGKP [YMR094W 38-51]	0
IRGFKSKPGTAKP [YDR409W 265-277]	434
IMSPVGNPEGPEKP [YKL060C 311-324]	153
IPPPQTLPNGQKP [YGL222C 52-64]	57.2
IHYKKNIEISPLKP [YML053C 112-125]	82.1
IHLTDKGFKMPKKP [YOR243C 79-92]	508
IITDTTRPSNNRP [YOR368W 277-289]	126
ILVSLLIHSLPRKP [YGL104C 354-367]	176
INQFGIVPLGPKP [YGR154C 339-351]	133
INPLGITPLGPKP [YKR076W 353-365]	9.5
IRPDGRLPHQFRP [YDL111C 21-33]	1260

Binder	normalised SPOT signal, Boehringer light units (BLU); mean over the file's lines of this peptide
IPGLGYLENNPGRP [YOL146W 66-79]	155
ILVESSSPLSSKP [YGL248W 276-288]	52.3
IKEEERLQSQPPRP [YGR268C 17-30]	137
IPLLKEKPNALKP [YOR001W 149-161]	2180
IIEKGPVPENLKP [YLR069C 260-272]	100
IHTSPHQPSDVKP [YDR227W 60-72]	121
IPILIKMSRSPPRP [YDR243C 233-246]	2420
IRRYLRVPNELKP [YJL004C 4-16]	105
IPSGKVDPVTKKP [YJR024C 135-147]	21
IIDSVKVPDSYKP [YDR058C 11-23]	67.7
INLAVNMPPGQRP [YEL055C 74-86]	163
INLANEQPVLEKP [YDR227W 195-207]	105
ILEEDLNPDAPPKP [YPL057C 39-52]	76.3
IIHTDDLPEGIRP [YLR090W 426-438]	125
ILAILQELSLPSRP [YGR002C 424-437]	15.7
INAYSNIPPQQRP [YCR033W 972-984]	84.6
IQESMKHPKHFRP [YKL146W 503-515]	822
IKPPKHIRNEPVKP [YHR037W 22-35]	87.3
IIPIAKTPLNARP [YJR001W 478-490]	74.7
ILDKTSPETAPHKP [YOR176W 118-131]	86.1
ILKQDLIPSIGKP [YNR027W 300-312]	73
